The chains are these.
T1: Grnd^30–97 His66Ala (Drosophila melanogaster, UniProt Q9VJ83 30-97, His66Ala)
T1 sequence: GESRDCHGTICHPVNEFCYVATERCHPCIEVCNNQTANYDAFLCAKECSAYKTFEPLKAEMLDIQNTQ

T2: Grnd^30–97 Asn67Ala (Drosophila melanogaster, UniProt Q9VJ83 30-97, Asn67Ala)
T2 sequence: T1 sequence with A37H, N38A

T3: Grnd^30–97 Glu52Ala (Drosophila melanogaster, UniProt Q9VJ83 30-97, Glu52Ala)
T3 sequence: T1 sequence with E23A, A37H

T4: Strep-Egr^146–409 Asn333Ala (Drosophila melanogaster, UniProt Q8MUJ1-2 146-409, Asn333 with Ala)
T4 construct: also called substitution of the Egr glycosylation site Asn333 with Ala; source: mutation by QuikChange
T4 sequence (looked up): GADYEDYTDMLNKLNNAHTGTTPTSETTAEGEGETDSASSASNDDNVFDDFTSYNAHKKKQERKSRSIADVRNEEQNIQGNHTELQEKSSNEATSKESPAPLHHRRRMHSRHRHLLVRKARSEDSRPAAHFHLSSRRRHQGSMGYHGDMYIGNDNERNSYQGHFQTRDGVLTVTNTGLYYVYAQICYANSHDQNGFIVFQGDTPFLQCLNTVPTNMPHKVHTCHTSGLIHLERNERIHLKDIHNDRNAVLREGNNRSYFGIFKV

T5: Strep-Egr^146–409 (Drosophila melanogaster, UniProt Q8MUJ1-2 146-409)
T5 construct: probably SHuffle cells as for the His6 construct
T5 sequence (looked up): T4 sequence (looked up) with A188N

B1: Grnd^30–81 (tryptic fragment of the extracellular domain of Grindelwald) (domain or fragment, Drosophila melanogaster, UniProt Q9VJ83 30-81, looked up)
chain: GESRDCHGTICHPVNEFCYVATERCHPCIEVCNNQTHNYDAFLCAKECSAYK
notes: Grindelwald (Grnd), Drosophila melanogaster, residues 30-81; limits assigned by mass spectrometry; models hold residues 34-81 (free) and 31-81 (complex); also called Grnd-ECD; Grnd-CRD
B2: Egr^269–409 (TNF-homology domain of Eiger, tryptic fragment) (domain or fragment, Drosophila melanogaster, UniProt Q8MUJ1-2 269-409, looked up)
chain: DSRPAAHFHLSSRRRHQGSMGYHGDMYIGNDNERNSYQGHFQTRDGVLTVTNTGLYYVYAQICYNNSHDQNGFIVFQGDTPFLQCLNTVPTNMPHKVHTCHTSGLIHLERNERIHLKDIHNDRNAVLREGNNRSYFGIFKV
notes: Trimer in the crystal (threefold crystallographic symmetry); also called Egr-TNF; TNF domain of Egr
B3: Egr^146–409 (extracellular portion of Eiger, His6-tagged) (domain or fragment, Drosophila melanogaster, UniProt Q8MUJ1-2 146-409, looked up)
chain: T4 sequence (looked up) with A188N
notes: Cloned in a pET43 vector; Trimer by static light scattering; also called Egr/TNF; Egr extracellular domain; source: E. coli SHuffle cells, purified (HiTrap chelating Ni column, Superdex-200 SEC)
B4: Grnd^30–97 (extracellular domain of Grindelwald) (domain or fragment, Drosophila melanogaster, UniProt Q9VJ83 30-97, looked up)
chain: T1 sequence with A37H
notes: Grindelwald (Grnd), Drosophila melanogaster, extracellular domain, residues 30-97; pETM14 vector; His6-tag removed with PreScission protease; Monomer by static light scattering; also called wild-type Grnd^30–97; source: E. coli SHuffle B cells (NEB), purified (Ni HiTrap, PreScission, Resource-Q); not shown: His6, N-terminal, cleaved
B5: Grnd^30–97 Glu52Ala (domain or fragment, Drosophila melanogaster, UniProt Q9VJ83 30-97, looked up)
chain: T1 sequence with E23A, A37H
notes: Grindelwald (Grnd), Drosophila melanogaster, extracellular domain, residues 30-97; also called Glu52Ala^Grnd; Grnd-Glu52Ala; source: E. coli SHuffle B cells, purified (as Grnd^30–97); mutation by QuikChange; not shown: His6, N-terminal, cleaved
B6: Grnd^30–97 His66Ala (domain or fragment, Drosophila melanogaster, UniProt Q9VJ83 30-97, looked up)
chain: T1 sequence
notes: Grindelwald (Grnd), Drosophila melanogaster, extracellular domain, residues 30-97; also called His66Ala^Grnd; Grnd-His66Ala; source: E. coli SHuffle B cells, purified (as Grnd^30–97); mutation by QuikChange; not shown: His6, N-terminal, cleaved
B7: Grnd^30–97 Asn67Ala (domain or fragment, Drosophila melanogaster, UniProt Q9VJ83 30-97, looked up)
chain: T1 sequence with A37H, N38A
notes: Grindelwald (Grnd), Drosophila melanogaster, extracellular domain, residues 30-97; also called Asn67Ala^Grnd; Grnd-Asn67Ala; source: E. coli SHuffle B cells, purified (as Grnd^30–97); mutation by QuikChange; not shown: His6, N-terminal, cleaved

The target of data set [1] is Egr^146–409 (extracellular portion of Eiger, His6-tagged) (Drosophila melanogaster) (UniProt Q8MUJ1). The data set is described as follows: ITC; MicroCal PEAQ-ITC, 25 °C, 0.02 M Tris-HCl pH 8.0, 0.3 M NaCl; Grnd^30–97 at 100–340 μM titrated into 8 μM Egr^146–409; Wgn^78–201 at 4.5 mM titrated into 410 μM Egr^146–409; single-site fit.
Data set [2] deals with B2. The data set is described as follows: SEC; 30 μM Egr^146–409 incubated with Grnd^30–97 in a 1:1.3 molar ratio, treated with trypsin, loaded on a Superdex-5/150 column; fractions on Coomassie SDS-PAGE. The settings on record: both partners purified.
Data set [3] concerns the molecule itself. The data set is described as follows: crystal structure; Egr^269–409:Grnd^30–81 complex, 2.02 Å, space group P321, one 1:1 complex per asymmetric unit, 3:3 hetero-hexamer by the crystallographic threefold axis.
Data set [4] concerns the molecule itself. The data set can be described thus: SEC-MALS; static light scattering, Viscotek GPCmax/TDA with a Superdex 200-10/300 increase column, 0.02 M Tris-HCl pH 8.0, 0.3 M NaCl, 5% glycerol; about 75 μL at about 2 mg/mL (Egr alone and the two complexes).
A further data set concerns the target T1, Grnd^30–97 His66Ala. The data set can be described thus: ITC.
Another data set deals with T2, Grnd^30–97 Asn67Ala. The data set is described as follows: ITC.
Another data set has as its target T3, Grnd^30–97 Glu52Ala. The data set can be described thus: ITC.
Data set [5] addresses B3. The data set can be described thus: ITC; MicroCal PEAQ-ITC, 25 °C, 0.02 M Tris-HCl pH 8.0, 0.3 M NaCl; Grnd^30–97 at 100–340 μM titrated into 8 μM Egr^146–409; Wgn^78–201 at 4.5 mM titrated into 410 μM Egr^146–409; single-site fit. As to conditions: both partners purified.
Data set [6] addresses T4, Strep-Egr^146–409 Asn333Ala. The data set can be described thus: pull-down; 2 μM strep-tagged Egr^146–409 adsorbed on Strep-tactin beads, 10 μM Grnd^30–97 in solution, 1 h at 4 °C, 0.01 M Hepes pH 7.5, 0.1 M NaCl, 5% glycerol, 0.05% Tween, 0.5 mM EDTA; Coomassie staining. As to conditions: both partners purified.
A further data set has as its target T5, Strep-Egr^146–409. The description is as above. As to conditions: both partners purified.

Here are results for 8 molecules from publication PMC8024323, “Drosophila TNFRs Grindelwald and Wengen bind Eiger with different affinities and promote distinct cellular functions” (Nature Communications, 2021).

Where a chain is given by its changes, count along the chain named.

As for “Wgn^78–201 (whole extracellular domain of Wengen) (from UniProt Q9VWS4 78-201) (domain or fragment)”, the equilibrium dissociation constant (Kd) in data set [1] is 12 µM.
As for B1, the binding result in data set [2] was “binds”.
Turning to B2, the “stoichiometry N” value in [3] came to 3.
As for B3, the “stoichiometry N” value in data set [4] worked out at 3. Also, the dissociation constant Kd with Grnd^30–97 His66Ala stood at 4.8 µM; in the data set with Grnd^30–97 Asn67Ala, 4.5 µM; with Grnd^30–97 Glu52Ala, 1.3 µM.
In data set [5], B4 returned a dissociation constant (Kd) of approximately 0.03 µM. Besides, the binding result in data set [6] is recorded as “binds”.
In the case of B5, the binding result (in data set [5]; in the data set with Strep-Egr^146–409) was “binds” each time.
On to B6, for which the binding result (in [5]; with Strep-Egr^146–409) was “binds” each time.
Take B7: the binding result (in data set [5]; in the data set with Strep-Egr^146–409) was “binds” throughout.
